Tests used:
[1] = tested on: T1, GST-NIP45 fusion protein (bacterially expressed, full length NIP45)
T1 sequence: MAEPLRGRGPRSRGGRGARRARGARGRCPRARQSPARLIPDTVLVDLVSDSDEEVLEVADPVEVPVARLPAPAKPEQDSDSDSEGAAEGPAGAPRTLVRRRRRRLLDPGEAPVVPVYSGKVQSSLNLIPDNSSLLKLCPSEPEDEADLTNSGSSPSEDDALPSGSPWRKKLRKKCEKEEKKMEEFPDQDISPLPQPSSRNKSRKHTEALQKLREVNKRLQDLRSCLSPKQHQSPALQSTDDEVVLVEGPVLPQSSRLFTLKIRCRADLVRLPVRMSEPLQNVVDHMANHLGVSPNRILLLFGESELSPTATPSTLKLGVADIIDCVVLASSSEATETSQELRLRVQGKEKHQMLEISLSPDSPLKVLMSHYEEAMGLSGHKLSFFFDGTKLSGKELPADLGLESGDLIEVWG

Substance	in vitro methylation assay with affinity purified PRMTs and GST-NIP45 [1]	in vitro methylation assay with recombinant proteins (Histone H3)
Flag epitope tagged CARM1 immunoprecipitated from 293 cell extracts	In this assay, only PRMT1 was capable of methylating NIP45	–
Flag epitope tagged PRMT3 immunoprecipitated from 293 cell extracts	In this assay, only PRMT1 was capable of methylating NIP45	–
Flag epitope tagged PRMT5 immunoprecipitated from 293 cell extracts	In this assay, only PRMT1 was capable of methylating NIP45	–
GST-CARM1	–	CARM1 did methylate histone H3 (lane 7)

Source: US20090048117
